The values that follow come from publication PMC7525497, “Antibodies from Sierra Leonean and Nigerian Lassa fever survivors cross-react with recombinant proteins representing Lassa viruses of divergent lineages” (Scientific Reports, 2020).

This data set deals with the molecule itself. Put plainly: SDS-PAGE and western blotting. (In general: Immunoblotting shows a protein as a band on a membrane.)

B1: LASV Zinc protein (Z), lineage IV (natural protein)
chain: MGNKQAKAPESKDSPRASLIPDATHLGPQFCKSCWFENKGLVECNNHYLCLNCLTLLLSVSNRCPICKMPLPTKLRPSAAPTAPPTGAADSIRPPPYSP
notes: also called Z protein; lineage IV Z
Consider B1, for which the binding result was “binds”.
